Biological target: T1, KaiC S431E;T432A (KaiC-EA) (UniProt Q79PF4 1-519, S431E | T432A)
T1 sequence (looked up): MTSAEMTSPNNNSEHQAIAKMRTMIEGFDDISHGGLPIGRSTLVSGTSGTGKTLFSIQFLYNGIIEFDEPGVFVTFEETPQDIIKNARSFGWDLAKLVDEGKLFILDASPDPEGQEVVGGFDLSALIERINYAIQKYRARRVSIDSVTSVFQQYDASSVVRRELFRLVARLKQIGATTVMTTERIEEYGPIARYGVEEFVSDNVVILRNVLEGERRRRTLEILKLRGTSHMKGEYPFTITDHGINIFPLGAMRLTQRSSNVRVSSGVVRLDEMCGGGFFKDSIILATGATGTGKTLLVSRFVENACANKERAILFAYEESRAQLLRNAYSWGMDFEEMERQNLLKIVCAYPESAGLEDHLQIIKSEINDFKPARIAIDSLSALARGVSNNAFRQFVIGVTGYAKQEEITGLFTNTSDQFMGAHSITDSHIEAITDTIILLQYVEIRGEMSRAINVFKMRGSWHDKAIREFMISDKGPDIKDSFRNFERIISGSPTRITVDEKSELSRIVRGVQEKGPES
Experiment: co-IP

B1: wildtype KaiB-FLAG (natural protein, UniProt Q79PF5 1-102, looked up)
chain: MSPRKTYILKLYVAGNTPNSVRALKTLKNILEVEFQGVYALKVIDVLKNPQLAEEDKILATPTLAKVLPLPVRRIIGDLSDREKVLIGLDLLYGELQDSDDF
Question: Does B1 bind?
Answer: Result: binds
